Source: patent publication US20230192903A1 (published 2023)

Columns and labels:
Human CLDN18.2 [1] = molecular target: Human CLDN18.2 (human); assay: cell-based or functional assay
human CD3 antigen = molecular target: T1, human CD3 antigen (human, UniProt P07766 23-126); assay: SPR (Biacore T200), human CD3 antigen on CM5 chip
T1 construct: also called Human CD3ϵ
Procedure: After the detection was completed, data fitting was carried out on the result pattern by adopting Biacore T200 Evaluation Software in a 1:1 binding fitting mode to obtain an equilibrium dissociation constant (KD).

Human CLDN18.1 = molecular target: T2, Human CLDN18.1 (human, UniProt P56856 1-261); assay: flow cytometry, 293T-hCLDN18.1 cells
T2 construct: also called hCLDN18.1

Human CLDN18.2 [2] = molecular target: T3, Human CLDN18.2 (human); assay: flow cytometry, NUGC4-hCLDN18.2 cells
T3 construct: the cell line is named under assay; also called hCLDN18.2; human CLDN18.2 antigen
Procedure: NUGC4 and NUGC4-hCLDN18.2 cells were cultured, digested with pancreatin and centrifuged to collect cells. The cells were collected and resuspended in buffer (PBS+1% FBS) at 1×10⁴ cells/well in a 96-well plate at 100 μL per well. Then the mixture was centrifuged at 350×g for 5 min, and the supernatant was removed.

Human CLDN18.2 [3] = molecular target: T3, Human CLDN18.2; assay: flow cytometry, NUGC4 cells (endogenous CLDN18.2)

Binder | EC50 value for killing effect on NUGC4-hCLDN18.2 cells (Human CLDN18.2 [1]) | Kd (human CD3 antigen) | binding result (Human CLDN18.1) | EC50 (Human CLDN18.2 [2]) | EC50 value for killing effect on NUGC4 cells (Human CLDN18.2 [1]) | EC50 (Human CLDN18.2 [3])
bispecific antibody CS6 (bispecific antibody, human IgG1, kappa, CSBODY structure: two 175D10 Fab arms; second heavy chain (first heavy entry) and first heavy chain with anti-CD3 scFv (Di6-2) between CH1 and Fc2) light: DIVMTQSPSSLTVTAGEKVTMSCKSSQSLLNSGNQKNYLTWYQQKPGQPPKLLIYWASTRESGVPDRFTGSGSGTDFTLTISSVQAEDLAVYYCQNDYSYPFTFGSGTKLEIKRTVAAPSVFIFPPSDEQLKSGTASVVCLLNNFYPREAKVQWKVDNALQSGNSQESVTEQDSKDSTYSLSSTLTLSKADYEKHKVYACEVTHQGLSSPVTKSFNRGEC heavy 1: QVQLQQPGAELVRPGASVKLSCKASGYTFTSYWINWVKQRPGQGLEWIGNIYPSDSYTNYNQKFKDKATLTVDKSSSTAYMQLSSPTSEDSAVYYCTRSWRGNSFDYWGQGTTLTVSSASTKGPSVFPLAPSSKSTSGGTAALGCLVKDYFPEPVTVSWNSGALTSGVHTFPAVLQSSGLYSLSSVVTVPSSSLGTQTYICNVNHKPSNTKVDKKVEPKSCDKTHTCPPCPAPPVAGPSVFLFPPKPKDTLMISRTPEVTCVVVDVSHEAPEVQFNWYVDGVEVHNAKTKPREEQFNSTFRVVSVLTVVHQDWLNGKEYKCKVSNKGLPAPIEKTISKTKGQPREPQVYTLPPCRDELTKNQVSLWCLVKGFYPSDIAVEWESNGQPENNYKTTPPVLDSDGSFFLYSKLTVDKSRWQQGNVFSCSVMHEALHNHYTQKSLSLSPGK heavy 2: QVQLQQPGAELVRPGASVKLSCKASGYTFTSYWINWVKQRPGQGLEWIGNIYPSDSYTNYNQKFKDKATLTVDKSSSTAYMQLSSPTSEDSAVYYCTRSWRGNSFDYWGQGTTLTVSSASTKGPSVFPLAPSSKSTSGGTAALGCLVKDYFPEPVTVSWNSGALTSGVHTFPAVLQSSGLYSLSSVVTVPSSSLGTQTYICNVNHKPSNTKVDKKVEPKSCDKTHTAPAPAPAPAPAPAPAPQVQLVESGGGVVQPGRSLRLSCAASGFTFSTYAMNWVRQAPGKGLEWVGRIRSKYNNYATYYADSVKDRFTISRDDSKNTLYLQMNSLRGEDTAVYYCARHGNFGNSYVSWFAYWGQGTLVTVSSGGGGSGGGGSGGGGSQTVVTQEPSLTVSPGGTVTLTCRSSTGAVTTSNYANWVQQKPGQAPRGLIGGTNKRAPGVPARFSGSLLGGKAALTLSGVQPEDEAEYTCALWYSNLWVFGGGTKVEIKGGGGSDKTHTCPPCPAPPVAGPSVFLFPPKPKDTLMISRTPEVTCVVVDVSHEAPEVQFNWYVDGVEVHNAKTKPREEQFNSTFRVVSVLTVVHQDWLNGKEYKCKVSNKGLPAPIEKTISKTKGQPREPQVCTLPPSRDELTKNQVSLSCAVKGFYPSDIAVEWESNGQPENNYKTTPPVLDSDGSFFLVSKLTVDKSRWQQGNVFSCSVMHEALHNHYTQKSLSLSPGK | < 0.01 nM | < 15 nM | no binding | < 50 nM |  | 
bispecific antibody CS7 (bispecific antibody, human IgG1, kappa, CSBODY structure: two 1E9.2 Fab arms; second heavy chain (first heavy entry) and first heavy chain with anti-CD3 scFv (Di6-2) between CH1 and Fc2) light: not shown heavy 1: EVQLVESGGGLVKPGGSLRLSCAASGFSFSNSAMSWVRQAPGKGLEWVSTISSGDSYTYYADSVKGRFTISRDNAKNSLYLQMNSLRAEDTAVYYCARQGYGNALDYWGQGTLVTVSSASTKGPSVFPLAPSSKSTSGGTAALGCLVKDYFPEPVTVSWNSGALTSGVHTFPAVLQSSGLYSLSSVVTVPSSSLGTQTYICNVNHKPSNTKVDKKVEPKSCDKTHTCPPCPAPPVAGPSVFLFPPKPKDTLMISRTPEVTCVVVDVSHEAPEVQFNWYVDGVEVHNAKTKPREEQFNSTFRVVSVLTVVHQDWLNGKEYKCKVSNKGLPAPIEKTISKTKGQPREPQVYTLPPCRDELTKNQVSLWCLVKGFYPSDIAVEWESNGQPENNYKTTPPVLDSDGSFFLYSKLTVDKSRWQQGNVFSCSVMHEALHNHYTQKSLSLSPGK heavy 2: EVQLVESGGGLVKPGGSLRLSCAASGFSFSNSAMSWVRQAPGKGLEWVSTISSGDSYTYYADSVKGRFTISRDNAKNSLYLQMNSLRAEDTAVYYCARQGYGNALDYWGQGTLVTVSSASTKGPSVFPLAPSSKSTSGGTAALGCLVKDYFPEPVTVSWNSGALTSGVHTFPAVLQSSGLYSLSSVVTVPSSSLGTQTYICNVNHKPSNTKVDKKVEPKSCDKTHTAPAPAPAPAPAPAPAPQVQLVESGGGVVQPGRSLRLSCAASGFTFSTYAMNWVRQAPGKGLEWVGRIRSKYNNYATYYADSVKDRFTISRDDSKNTLYLQMNSLRGEDTAVYYCARHGNFGNSYVSWFAYWGQGTLVTVSSGGGGSGGGGSGGGGSQTVVTQEPSLTVSPGGTVTLTCRSSTGAVTTSNYANWVQQKPGQAPRGLIGGTNKRAPGVPARFSGSLLGGKAALTLSGVQPEDEAEYTCALWYSNLWVFGGGTKVEIKGGGGSDKTHTCPPCPAPPVAGPSVFLFPPKPKDTLMISRTPEVTCVVVDVSHEAPEVQFNWYVDGVEVHNAKTKPREEQFNSTFRVVSVLTVVHQDWLNGKEYKCKVSNKGLPAPIEKTISKTKGQPREPQVCTLPPSRDELTKNQVSLSCAVKGFYPSDIAVEWESNGQPENNYKTTPPVLDSDGSFFLVSKLTVDKSRWQQGNVFSCSVMHEALHNHYTQKSLSLSPGK | < 0.01 nM | < 15 nM | no binding | < 50 nM | < 0.01 nM | < 100 nM
bispecific antibody Y17 (bispecific antibody, human IgG1, kappa, YBODY structure: anti-CLDN18.2 Fab arm (1E9.2) and second monomer anti-CD3 scFv (Di6-2)-Fc) light: not shown heavy: EVQLVESGGGLVKPGGSLRLSCAASGFSFSNSAMSWVRQAPGKGLEWVSTISSGDSYTYYADSVKGRFTISRDNAKNSLYLQMNSLRAEDTAVYYCARQGYGNALDYWGQGTLVTVSSASTKGPSVFPLAPSSKSTSGGTAALGCLVKDYFPEPVTVSWNSGALTSGVHTFPAVLQSSGLYSLSSVVTVPSSSLGTQTYICNVNHKPSNTKVDKKVEPKSCDKTHTCPPCPAPPVAGPSVFLFPPKPKDTLMISRTPEVTCVVVDVSHEAPEVQFNWYVDGVEVHNAKTKPREEQFNSTFRVVSVLTVVHQDWLNGKEYKCKVSNKGLPAPIEKTISKTKGQPREPQVYTLPPCRDELTKNQVSLWCLVKGFYPSDIAVEWESNGQPENNYKTTPPVLDSDGSFFLYSKLTVDKSRWQQGNVFSCSVMHEALHNHYTQKSLSLSPGK QVQLVESGGGVVQPGRSLRLSCAASGFTFSTYAMNWVRQAPGKGLEWVGRIRSKYNNYATYYADSVKDRFTISRDDSKNTLYLQMNSLRGEDTAVYYCARHGNFGNSYVSWFAYWGQGTLVTVSSGGGGSGGGGSGGGGSQTVVTQEPSLTVSPGGTVTLTCRSSTGAVTTSNYANWVQQKPGQAPRGLIGGTNKRAPGVPARFSGSLLGGKAALTLSGVQPEDEAEYTCALWYSNLWVFGGGTKVEIKGRGRGSDKTHTCPPCPAPPVAGPSVFLFPPKPKDTLMISRTPEVTCVVVDVSHEAPEVQFNWYVDGVEVHNAKTKPREEQFNSTFRVVSVLTVVHQDWLNGKEYKCKVSNKGLPAPIEKTISKTKGQPREPQVCTLPPSRDELTKNQVSLSCAVKGFYPSDIAVEWESNGQPENNYKTTPPVLDSDGSFFLVSKLTVDKSRWQQGNVFSCSVMHEALHNHYTQKSLSLSPGK | < 0.01 nM | < 15 nM | no binding | < 50 nM | < 0.01 nM | < 100 nM
bispecific antibody CS8 (bispecific antibody, human IgG1, kappa, CSBODY structure: two 2C6.9 Fab arms; second heavy chain (first heavy entry) and first heavy chain with anti-CD3 scFv (Di6-2) between CH1 and Fc2) light: not shown heavy 1: QVQLQESGPGLVKPSETLSLTCTVSGFSLTRYGVSWIRQPPGKGLEWIGVIWGEGNTNYNPSLKSRVTISKDSSKSQVSLKLSSVTAADTAVYYCARVNFGNALDYWGQGTLVTVSSASTKGPSVFPLAPSSKSTSGGTAALGCLVKDYFPEPVTVSWNSGALTSGVHTFPAVLQSSGLYSLSSVVTVPSSSLGTQTYICNVNHKPSNTKVDKKVEPKSCDKTHTCPPCPAPPVAGPSVFLFPPKPKDTLMISRTPEVTCVVVDVSHEAPEVQFNWYVDGVEVHNAKTKPREEQFNSTFRVVSVLTVVHQDWLNGKEYKCKVSNKGLPAPIEKTISKTKGQPREPQVYTLPPCRDELTKNQVSLWCLVKGFYPSDIAVEWESNGQPENNYKTTPPVLDSDGSFFLYSKLTVDKSRWQQGNVFSCSVMHEALHNHYTQKSLSLSPGK heavy 2: QVQLQESGPGLVKPSETLSLTCTVSGFSLTRYGVSWIRQPPGKGLEWIGVIWGEGNTNYNPSLKSRVTISKDSSKSQVSLKLSSVTAADTAVYYCARVNFGNALDYWGQGTLVTVSSASTKGPSVFPLAPSSKSTSGGTAALGCLVKDYFPEPVTVSWNSGALTSGVHTFPAVLQSSGLYSLSSVVTVPSSSLGTQTYICNVNHKPSNTKVDKKVEPKSCDKTHTAPAPAPAPAPAPAPAPQVQLVESGGGVVQPGRSLRLSCAASGFTFSTYAMNWVRQAPGKGLEWVGRIRSKYNNYATYYADSVKDRFTISRDDSKNTLYLQMNSLRGEDTAVYYCARHGNFGNSYVSWFAYWGQGTLVTVSSGGGGSGGGGSGGGGSQTVVTQEPSLTVSPGGTVTLTCRSSTGAVTTSNYANWVQQKPGQAPRGLIGGTNKRAPGVPARFSGSLLGGKAALTLSGVQPEDEAEYTCALWYSNLWVFGGGTKVEIKGGGGSDKTHTCPPCPAPPVAGPSVFLFPPKPKDTLMISRTPEVTCVVVDVSHEAPEVQFNWYVDGVEVHNAKTKPREEQFNSTFRVVSVLTVVHQDWLNGKEYKCKVSNKGLPAPIEKTISKTKGQPREPQVCTLPPSRDELTKNQVSLSCAVKGFYPSDIAVEWESNGQPENNYKTTPPVLDSDGSFFLVSKLTVDKSRWQQGNVFSCSVMHEALHNHYTQKSLSLSPGK | < 0.01 nM | < 15 nM | no binding | < 50 nM | < 0.01 nM | < 100 nM
bispecific antibody CS11 (bispecific antibody, human IgG1, kappa, CSBODY structure: two 2C6.9 Fab arms; second heavy chain (first heavy entry) and first heavy chain with anti-CD3 scFv (L2K) between CH1 and Fc2) light: not shown heavy 1: QVQLQESGPGLVKPSETLSLTCTVSGFSLTRYGVSWIRQPPGKGLEWIGVIWGEGNTNYNPSLKSRVTISKDSSKSQVSLKLSSVTAADTAVYYCARVNFGNALDYWGQGTLVTVSSASTKGPSVFPLAPSSKSTSGGTAALGCLVKDYFPEPVTVSWNSGALTSGVHTFPAVLQSSGLYSLSSVVTVPSSSLGTQTYICNVNHKPSNTKVDKKVEPKSCDKTHTCPPCPAPPVAGPSVFLFPPKPKDTLMISRTPEVTCVVVDVSHEAPEVQFNWYVDGVEVHNAKTKPREEQFNSTFRVVSVLTVVHQDWLNGKEYKCKVSNKGLPAPIEKTISKTKGQPREPQVYTLPPCRDELTKNQVSLWCLVKGFYPSDIAVEWESNGQPENNYKTTPPVLDSDGSFFLYSKLTVDKSRWQQGNVFSCSVMHEALHNHYTQKSLSLSPGK heavy 2: not shown | < 0.01 nM |  | no binding | < 50 nM | < 0.01 nM | < 100 nM
